Literature values, collected in article PMC10653114.

Columns and labels:
Lys13 [1] = target: Lys13 (UniProt position 14, QIAEFKEAFSL); details: 298 K; Conc. 0.10 (unit not given; K+/Cl–); apo (Ca2+-free) calmodulin, per the Supplemental Methods, which build an apo model
Lys21 = Lys21 (UniProt position 22, FSLFDKDGDGT); details: 298 K; Conc. 0.10 (unit not given; K+/Cl–); apo (Ca2+-free) calmodulin, per the Supplemental Methods, which build an apo model
Lys30 = Lys30 (UniProt position 31, GTITTKELGTV); details: 298 K; Conc. 0.10 (unit not given; K+/Cl–); apo (Ca2+-free) calmodulin, per the Supplemental Methods, which build an apo model
Lys75 = Lys75 (UniProt position 76, TMMARKMKDTD); details: 298 K; Conc. 0.10 (unit not given; K+/Cl–); apo (Ca2+-free) calmodulin, per the Supplemental Methods, which build an apo model
Lys77 = Lys77 (UniProt position 78, MARKMKDTDSE); details: 298 K; Conc. 0.10 (unit not given; K+/Cl–); apo (Ca2+-free) calmodulin, per the Supplemental Methods, which build an apo model
Lys94 = Lys94 (UniProt position 95, FRVFDKDGNGY); details: 298 K; Conc. 0.10 (unit not given; K+/Cl–); apo (Ca2+-free) calmodulin, per the Supplemental Methods, which build an apo model
Asp27 = Asp27 (UniProt position 156, PLCGSDNKTYG); details: 298 K; Conc. 0.015 (unit not given; K+/Cl–)
Asp7 = Asp7 (UniProt position 136, AAVSVDCSEYP); details: 298 K; Conc. 0.015 (unit not given; K+/Cl–)
Lys13 [2] = target: Lys13 (UniProt position 142, CSEYPKPACTL); details: 298 K; Conc. 0.015 (unit not given; K+/Cl–)
Lys29 = Lys29 (UniProt position 158, CGSDNKTYGNK); details: 298 K; Conc. 0.015 (unit not given; K+/Cl–)
Lys34 = Lys34 (UniProt position 163, KTYGNKCNFCN); details: 298 K; Conc. 0.015 (unit not given; K+/Cl–)
Lys55 = Lys55 (UniProt position 184, LSHFGKC----); details: 298 K; Conc. 0.015 (unit not given; K+/Cl–)
Asp61 [3] = target: Asp61 (UniProt position 435, STVTQDGSAVH); details: 298 K; Conc. 0.10 (unit not given; K+/Cl–)
Asp16 = Asp16 (UniProt position 16, FQEALDAAGDK); details: 298 K; Conc. 0.00 (unit not given; Na+/Cl–)
Asp20 = Asp20 (UniProt position 20, LDAAGDKLVVV); details: 298 K; Conc. 0.00 (unit not given; Na+/Cl–)
Asp26 = Asp26 (UniProt position 26, KLVVVDFSATW); details: 298 K; Conc. 0.00 (unit not given; Na+/Cl–)
Asp64 = Asp64 (UniProt position 64, VDDCQDVASEC); details: 298 K; Conc. 0.00 (unit not given; Na+/Cl–)
Glu103 = Glu103 (UniProt position 103, EATINELV---); details: 298 K; Conc. 0.00 (unit not given; Na+/Cl–)
Glu13 = Glu13 (UniProt position 13, KTAFQEALDAA); details: 298 K; Conc. 0.00 (unit not given; Na+/Cl–)
Glu47 = Glu47 (UniProt position 47, FHSLSEKYSNV); details: 298 K; Conc. 0.00 (unit not given; Na+/Cl–)
Glu56 = Glu56 (UniProt position 56, NVIFLEVDVDD); details: 298 K; Conc. 0.00 (unit not given; Na+/Cl–)
Glu6 [4] = target: Glu6 (UniProt position 6, MVKQIESKTAF); details: 298 K; Conc. 0.00 (unit not given; Na+/Cl–)
Glu68 = Glu68 (UniProt position 68, QDVASECEVKC); details: 298 K; Conc. 0.00 (unit not given; Na+/Cl–)
Glu70 = Glu70 (UniProt position 70, VASECEVKCMP); details: 298 K; Conc. 0.00 (unit not given; Na+/Cl–)
Glu88 = Glu88 (UniProt position 88, GQKVGEFSGAN); details: 298 K; Conc. 0.00 (unit not given; Na+/Cl–)
Glu95 = Glu95 (UniProt position 95, SGANKEKLEAT); details: 298 K; Conc. 0.00 (unit not given; Na+/Cl–)
Glu98 = Glu98 (UniProt position 98, NKEKLEATINE); details: 298 K; Conc. 0.00 (unit not given; Na+/Cl–)
Asp61 [5] = target: Asp61 (UniProt position 435, STVTQDGSAVT); details: 298 K; Conc. 0.10 (unit not given; K+/Cl–)
Asp10 = Asp10 (UniProt position 10, VEIFTDGSCLG); assay: NMR (per the title of cited ref 95); details: 300 K; Conc. 0.10 (unit not given; Na+/Cl–)
Asp108 = Asp108 (UniProt position 108, LWQRLDAALGQ); assay: NMR (per the title of cited ref 95); details: 300 K; Conc. 0.10 (unit not given; Na+/Cl–)
Asp134 = Asp134 (UniProt position 134, ENERCDELARA); assay: NMR (per the title of cited ref 95); details: 300 K; Conc. 0.10 (unit not given; Na+/Cl–)
Asp70 = Asp70 (UniProt position 70, VILSTDSQYVR); assay: NMR (per the title of cited ref 95); details: 300 K; Conc. 0.10 (unit not given; Na+/Cl–)
Asp94 = Asp94 (UniProt position 94, GWKTADKKPVK); assay: NMR (per the title of cited ref 95); details: 300 K; Conc. 0.10 (unit not given; Na+/Cl–)
Glu119 = Glu119 (UniProt position 119, HQIKWEWVKGH); assay: NMR (per the title of cited ref 95); details: 300 K; Conc. 0.10 (unit not given; Na+/Cl–)
Glu129 = Glu129 (UniProt position 129, HAGHPENERCD); assay: NMR (per the title of cited ref 95); details: 300 K; Conc. 0.10 (unit not given; Na+/Cl–)
Glu131 = Glu131 (UniProt position 131, GHPENERCDEL); assay: NMR (per the title of cited ref 95); details: 300 K; Conc. 0.10 (unit not given; Na+/Cl–)
Glu135 = Glu135 (UniProt position 135, NERCDELARAA); assay: NMR (per the title of cited ref 95); details: 300 K; Conc. 0.10 (unit not given; Na+/Cl–)
Glu147 = Glu147 (UniProt position 147, MNPTLEDTGYQ); assay: NMR (per the title of cited ref 95); details: 300 K; Conc. 0.10 (unit not given; Na+/Cl–)
Glu154 = Glu154 (UniProt position 154, TGYQVEV----); assay: NMR (per the title of cited ref 95); details: 300 K; Conc. 0.10 (unit not given; Na+/Cl–)
Glu32 = Glu32 (UniProt position 32, RYRGREKTFSA); assay: NMR (per the title of cited ref 95); details: 300 K; Conc. 0.10 (unit not given; Na+/Cl–)
Glu48 = Glu48 (UniProt position 48, TNNRMELMAAI); assay: NMR (per the title of cited ref 95); details: 300 K; Conc. 0.10 (unit not given; Na+/Cl–)
Glu57 = Glu57 (UniProt position 57, AIVALEALKEH); assay: NMR (per the title of cited ref 95); details: 300 K; Conc. 0.10 (unit not given; Na+/Cl–)
Glu6 [6] = target: Glu6 (UniProt position 6, MLKQVEIFTDG); assay: NMR (per the title of cited ref 95); details: 300 K; Conc. 0.10 (unit not given; Na+/Cl–)
Glu61 = Glu61 (UniProt position 61, LEALKEHCEVI); assay: NMR (per the title of cited ref 95); details: 300 K; Conc. 0.10 (unit not given; Na+/Cl–)
Glu64 = Glu64 (UniProt position 64, LKEHCEVILST); assay: NMR (per the title of cited ref 95); details: 300 K; Conc. 0.10 (unit not given; Na+/Cl–)
Lys19 = Lys19 (UniProt position 259, LHITEKLEVLA); assay: NMR (per the title of cited ref 99); details: 298 K; Conc. 0.10 (unit not given; K+/Cl–)
Lys25 = Lys25 (UniProt position 265, LEVLAKAYSVQ); assay: NMR (per the title of cited ref 99); details: 298 K; Conc. 0.10 (unit not given; K+/Cl–)
Lys33 = Lys33 (UniProt position 273, SVQGDKWRALG); assay: NMR (per the title of cited ref 99); details: 298 K; Conc. 0.10 (unit not given; K+/Cl–)
Lys41 = Lys41 (UniProt position 281, ALGYAKAINAL); assay: NMR (per the title of cited ref 99); details: 298 K; Conc. 0.10 (unit not given; K+/Cl–)
Lys47 = Lys47 (UniProt position 287, AINALKSFHKP); assay: NMR (per the title of cited ref 99); details: 298 K; Conc. 0.10 (unit not given; K+/Cl–)
Lys51 = Lys51 (UniProt position 291, LKSFHKPVTSY); assay: NMR (per the title of cited ref 99); details: 298 K; Conc. 0.10 (unit not given; K+/Cl–)
Lys67 = Lys67 (UniProt position 307, IPGIGKRMAEK); assay: NMR (per the title of cited ref 99); details: 298 K; Conc. 0.10 (unit not given; K+/Cl–)
Lys72 = Lys72 (UniProt position 312, KRMAEKIIEIL); assay: NMR (per the title of cited ref 99); details: 298 K; Conc. 0.10 (unit not given; K+/Cl–)
Lys8 = Lys8 (UniProt position 248, QPSSQKATNHN); assay: NMR (per the title of cited ref 99); details: 298 K; Conc. 0.10 (unit not given; K+/Cl–)
Lys84 = Lys84 (UniProt position 324, SGHLRKLDHIS); assay: NMR (per the title of cited ref 99); details: 298 K; Conc. 0.10 (unit not given; K+/Cl–)

For “Calmodulin (apo) (Homo sapiens (as modelled in the article; source species of the measured sample not stated))”, the pKa (Lys13 [1]) is given as 10.23 ± 0.10, the pKa (Lys21) is given as 10.55 ± 0.10 and the pKa (Lys30) is given as 10.55 ± 0.10. For the same substance, the pKa (Lys75) was 9.87 ± 0.10, the pKa (Lys77) was 10.55 ± 0.10 and the pKa (Lys94) was 10.55 ± 0.10.
In the case of “Turkey ovomucoid third domain (OMTKY3) (Meleagris gallopavo)”, the pKa (Asp27) is given as 2.56 ± 0.03, the pKa (Asp7) is given as 2.95 ± 0.03 and the pKa (Lys13 [2]) is given as 9.86 ± 0.03. The pKa (Lys29) was 11.12 ± 0.02, the pKa (Lys34) was 10.13 ± 0.05 and the pKa (Lys55) was 11.10 ± 0.06.
For “Highly charge-depleted protein (PDB 6QFS), S61D/T66H variant (Cellulomonas fimi (parent domain; not stated in the article); S61D;T66H (on the 6QFS charge-depleted background; background substitutions not stated))”, the pKa (Asp61 [3]) is listed as 4.10 ± 0.02.
In the case of “Thioredoxin (human, reduced) (Homo sapiens)”, the pKa (Asp16) is listed as 4.1 ± 0.10, the pKa (Asp20) is listed as 3.8 ± 0.05 and the pKa (Asp26) is listed as 9.9 ± 0.10. The pKa (Asp64) was 3.2 ± 0.06, the pKa (Glu103) was 4.4 ± 0.07 and the pKa (Glu13) was 4.4 ± 0.07. For the same substance, the pKa (Glu47) was 4.1 ± 0.10, the pKa (Glu56) was 3.1 ± 0.10 and the pKa (Glu6 [4]) was 4.8 ± 0.08. The pKa (Glu68) was 4.9 ± 0.07, the pKa (Glu70) was 4.6 ± 0.08 and the pKa (Glu88) was 3.7 ± 0.08. The pKa (Glu95) was 4.1 ± 0.02 and the pKa (Glu98) was 3.9 ± 0.02.
For “Highly charge-depleted protein (PDB 6QFS), S61D variant (Cellulomonas fimi (parent domain; not stated in the article); S61D (on the 6QFS charge-depleted background; background substitutions not stated))”, the pKa (Asp61 [5]) is listed as 4.15 ± 0.01.
In the case of Ribonuclease HI (Escherichia coli), the pKa (Asp10) is given as 6.1, the pKa (Asp108) is given as 3.2 and the pKa (Asp134) is given as 4.1. For the same substance, the pKa (Asp70) was 2.6, the pKa (Asp94) was 3.2 and the pKa (Glu119) was 4.1. For the same substance, the pKa (Glu129) was 3.6, the pKa (Glu131) was 4.3 and the pKa (Glu135) was 4.3. The pKa (Glu147) was 4.2, the pKa (Glu154) was 4.4 and the pKa (Glu32) was 3.6. For the same substance, the pKa (Glu48) was 4.4, the pKa (Glu57) was 3.2 and the pKa (Glu6 [6]) was 4.5. For the same substance, the pKa (Glu61) was 3.9 and the pKa (Glu64) was 4.4.
For “DNA polymerase lambda, lyase (8 kDa) domain (Homo sapiens)”, the pKa (Lys19) is given as 10.07 ± 0.14, the pKa (Lys25) is given as 10.23 ± 0.14 and the pKa (Lys33) is given as 10.07 ± 0.14. The pKa (Lys41) was 10.01 ± 0.14, the pKa (Lys47) was 10.65 ± 0.14 and the pKa (Lys51) was 10.26 ± 0.14. The pKa (Lys67) was 10.16 ± 0.14, the pKa (Lys72) was 9.58 ± 0.14 and the pKa (Lys8) was 10.27 ± 0.14. The pKa (Lys84) was 10.27 ± 0.14.
